First the molecules themselves.
B1: FBXO39 (parent)
chain: PSRVHASEVESAVWYVKKFGRYLE
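Also: lentivirally expressed fusions sorted by FACS into six bins by GFP to DsRed ratio, PSI derived from sequencing read proportions per bin multiplied by bin number.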

The series covers variants of B1. Kind of series: protein stability index of a GFP-peptide fusion (GPS, HEK-293T) (PSI 1-6); higher = more stable. To be noted: c terminus: a fixed tail appended.
PSRVHASEVESAVWYVKKLGRYLE [F19L]: the protein stability index was found to be 2.22. For the variant PSRVHASEVESAVWYVKKHGRYLE [F19H], the protein stability index came to 3.06.

With PSRVHASEVESAVWYVKKYGRYLE [F19Y], the protein stability index worked out at 2.5. To PSRVHASEVESAVWYVKKRGRYLE [F19R] belongs 2.88; to PSRVHASEVESAVWYVKKWGRYLE [F19W], 2.12. Turning to PSRVHASEVESAVWYVKKAGRYLE [F19A], the protein stability index is 2.77. As to PSRVHASEVESAVWYVKKPGRYLE [F19P], the protein stability index came out at 2.72. For the variant PSRVHASEVESAVWYVKKNGRYLE [F19N], the protein stability index worked out at 3.43. As to PSRVHASEVESAVWYVKKDGRYLE [F19D], the protein stability index is 3.27. To PSRVHASEVESAVWYVKKCGRYLE [F19C] belongs 2.04. The figure for PSRVHASEVESAVWYVKKMGRYLE [F19M] is 2.14; for PSRVHASEVESAVWYVKKIGRYLE [F19I] it is 1.88; for PSRVHASEVESAVWYVKKTGRYLE [F19T] it is 2.55.

PSRVHASEVESAVWYVKKQGRYLE [F19Q]: the protein stability index came to 2.79. To PSRVHASEVESAVWYVKKGGRYLE [F19G] belongs 3.17; to PSRVHASEVESAVWYVKKKGRYLE [F19K], 3.32. PSRVHASEVESAVWYVKKVGRYLE [F19V]: the protein stability index came out at 1.98. To PSRVHASEVESAVWYVKKSGRYLE [F19S] belongs 2.42. The figure for PSRVHASEVESAVWYVKKEGRYLE [F19E] is 3.76; for PSRVHASEVESAVWYVKKFGRVLE [Y22V] it is 2.28; for PSRVHASEVESAVWYVKKFGRTLE [Y22T] it is 2.03.

On to PSRVHASEVESAVWYVKKFGRRLE [Y22R], for which the protein stability index is 2.98. For the variant PSRVHASEVESAVWYVKKFGRNLE [Y22N], the protein stability index came to 2.71. As for PSRVHASEVESAVWYVKKFGRMLE [Y22M], the protein stability index worked out at 2.1.

As for PSRVHASEVESAVWYVKKFGRPLE [Y22P], the protein stability index is 2.67. As to PSRVHASEVESAVWYVKKFGRQLE [Y22Q], the protein stability index worked out at 2.74. The figure for PSRVHASEVESAVWYVKKFGRKLE [Y22K] is 3.58; for PSRVHASEVESAVWYVKKFGRDLE [Y22D] it is 2.89; for PSRVHASEVESAVWYVKKFGRELE [Y22E] it is 2.58. The figure for PSRVHASEVESAVWYVKKFGRILE [Y22I] is 1.85. The figure for PSRVHASEVESAVWYVKKFGRLLE [Y22L] is 1.62; for PSRVHASEVESAVWYVKKFGRWLE [Y22W] it is 3.81; for PSRVHASEVESAVWYVKKFGRALE [Y22A] it is 2.39. PSRVHASEVESAVWYVKKFGRFLE [Y22F]: the protein stability index turned out to be 1.91. Regarding PSRVHASEVESAVWYVKKFGRCLE [Y22C], the protein stability index is 2.44. Take PSRVHASEVESAVWYVKKFGRSLE [Y22S]: the protein stability index was determined as 2.58. To PSRVHASEVESAVWYVKKFGRHLE [Y22H] belongs 2.69; to PSRVHASEVESAVWYVKKFGRGLE [Y22G], 2.85. To PSRVHASEVESAVWYVKKFGRYHE [L23H] belongs 2.45; to PSRVHASEVESAVWYVKKFGRYPE [L23P], 2.58; to PSRVHASEVESAVWYVKKFGRYQE [L23Q], 2.74. To PSRVHASEVESAVWYVKKFGRYAE [L23A] belongs 2.59; to PSRVHASEVESAVWYVKKFGRYGE [L23G], 1.48; to PSRVHASEVESAVWYVKKFGRYIE [L23I], 2.17. Turning to PSRVHASEVESAVWYVKKFGRYEE [L23E], the protein stability index was 2.26. As for PSRVHASEVESAVWYVKKFGRYSE [L23S], the protein stability index was 2.76. For the variant PSRVHASEVESAVWYVKKFGRYFE [L23F], the protein stability index is 2.05. To PSRVHASEVESAVWYVKKFGRYRE [L23R] belongs 2.5. To PSRVHASEVESAVWYVKKFGRYME [L23M] belongs 2.09. The figure for PSRVHASEVESAVWYVKKFGRYCE [L23C] is 2.26; for PSRVHASEVESAVWYVKKFGRYDE [L23D] it is 2.9.

In the case of PSRVHASEVESAVWYVKKFGRYNE [L23N], the protein stability index was determined as 2.5.

Consider PSRVHASEVESAVWYVKKFGRYKE [L23K], for which the protein stability index turned out to be 3.07. The figure for PSRVHASEVESAVWYVKKFGSYLE [R21S] is 2.22; for PSRVHASEVESAVWYVKKFGEYLE [R21E] it is 2.5. With PSRVHASEVESAVWYVKKFGLYLE [R21L], the protein stability index was determined as 1.53. The figure for PSRVHASEVESAVWYVKKFGHYLE [R21H] is 2.04; for PSRVHASEVESAVWYVKKFGYYLE [R21Y] it is 1.65. PSRVHASEVESAVWYVKKFGIYLE [R21I]: the protein stability index was found to be 2.19.

PSRVHASEVESAVWYVKKFGGYLE [R21G]: the protein stability index is 2.42. The figure for PSRVHASEVESAVWYVKKFGWYLE [R21W] is 2.08; for PSRVHASEVESAVWYVKKFGMYLE [R21M] it is 1.37; for PSRVHASEVESAVWYVKKFGVYLE [R21V] it is 2.42. Turning to PSRVHASEVESAVWYVKKFGCYLE [R21C], the protein stability index was determined as 1.47. To PSRVHASEVESAVWYVKKFGKYLE [R21K] belongs 1.87. To PSRVHASEVESAVWYVKKFGQYLE [R21Q] belongs 2.09. The figure for PSRVHASEVESAVWYVKKFGAYLE [R21A] is 1.74; for PSRVHASEVESAVWYVKKFGPYLE [R21P] it is 1.98. For PSRVHASEVESAVWYVKKFGFYLE [R21F], the protein stability index stood at 1.9. As to PSRVHASEVESAVWYVKKFGTYLE [R21T], the protein stability index turned out to be 2.08.

In the case of PSRVHASEVESAVWYVKKFGDYLE [R21D], the protein stability index is 3. As to PSRVHASEVESAVWYVKKFGNYLE [R21N], the protein stability index worked out at 2.3. On to PSRVHASEVESAVWYVKKFQRYLE [G20Q], for which the protein stability index was 2.55. Take PSRVHASEVESAVWYVKKFERYLE [G20E]: the protein stability index is 2.95.

As for PSRVHASEVESAVWYVKKFHRYLE [G20H], the protein stability index worked out at 1.62. Consider PSRVHASEVESAVWYVKKFKRYLE [G20K], for which the protein stability index was found to be 2.19. To PSRVHASEVESAVWYVKKFPRYLE [G20P] belongs 1.64. For the variant PSRVHASEVESAVWYVKKFARYLE [G20A], the protein stability index was found to be 3.14.

On to PSRVHASEVESAVWYVKKFTRYLE [G20T], for which the protein stability index was 1.28. To PSRVHASEVESAVWYVKKFFRYLE [G20F] belongs 1.55; to PSRVHASEVESAVWYVKKFRRYLE [G20R], 2.1. Take PSRVHASEVESAVWYVKKFSRYLE [G20S]: the protein stability index was determined as 2.04.

Regarding PSRVHASEVESAVWYVKKFIRYLE [G20I], the protein stability index amounted to 1.91. The figure for PSRVHASEVESAVWYVKKFVRYLE [G20V] is 1.96; for PSRVHASEVESAVWYVKKFWRYLE [G20W] it is 2.97; for PSRVHASEVESAVWYVKKFMRYLE [G20M] it is 2.09. As for PSRVHASEVESAVWYVKKFLRYLE [G20L], the protein stability index is 1.75. In the case of PSRVHASEVESAVWYVKKFNRYLE [G20N], the protein stability index was found to be 2.38. As for PSRVHASEVESAVWYVKKFDRYLE [G20D], the protein stability index came to 2.27. To PSRVHASEVESAVWYVKKFYRYLE [G20Y] belongs 1.46; to PSRVHASEVESAVWYVKYFGRYLE [K18Y], 1.47; to PSRVHASEVESAVWYVKTFGRYLE [K18T], 1.73.

PSRVHASEVESAVWYVKVFGRYLE [K18V]: the protein stability index is 1.75.

In the case of PSRVHASEVESAVWYVKWFGRYLE [K18W], the protein stability index is 2.4.

These data come from the supplement of paper PMC10567573.
